Assay results published in patent publication US20040059519A1.
Several values for one entry are separate records, joined by “and”; a condition that tells them apart may be missing. Equal values may be shown once.

Tests used:
[1] = biological target: Alpha fetoprotein (UniProt P02771); test: multiplex sandwich, S10473 capture beads; AFP 1 ng/mL, washed
[2] = biological target: Alpha fetoprotein (UniProt P02771); test: anti-AFP capture beads, flow cytometry; AFP 10.0 ng/mL, anti-AFP probe
[3] = biological target: Alpha fetoprotein (UniProt P02771); test: multiplex no-wash sandwich, S10473 beads; serum Level 3, AFP 223 U/mL
[4] = biological target: Alpha fetoprotein (UniProt P02771); test: multiplex sandwich, S10473 capture beads; AFP 1 ng/mL, no wash
[5] = biological target: Alpha fetoprotein (UniProt P02771); test: multiplex sandwich, S10473 capture beads; AFP 8 ng/mL, no wash
[6] = biological target: Alpha fetoprotein (UniProt P02771); test: multiplex sandwich, S10473 capture beads; AFP 62 ng/mL, washed
[7] = biological target: Alpha fetoprotein (UniProt P02771); test: multiplex sandwich, S10473 capture beads; AFP 31 ng/mL, washed
[8] = biological target: Human chorionic gonadotropin (human) (UniProt P01215); test: MAB602 capture beads, flow cytometry; hCG 0.0 ng/mL, anti-AFP probe
Sequence of UniProt P01215 (P01215 25-116, chain 1 of 2, other chains not shown): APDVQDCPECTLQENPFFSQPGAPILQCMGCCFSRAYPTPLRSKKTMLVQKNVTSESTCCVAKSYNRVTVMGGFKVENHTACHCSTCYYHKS

[9] = biological target: Alpha fetoprotein (UniProt P02771); test: multiplex sandwich, S10473 capture beads; AFP 62 ng/mL, no wash
[10] = biological target: Alpha fetoprotein (UniProt P02771); test: multiplex no-wash sandwich, S10473 beads; serum Level 2, AFP 53.8 U/mL
[11] = biological target: Alpha fetoprotein (UniProt P02771); test: multiplex sandwich, S10473 capture beads; AFP 1000 ng/mL, no wash
[12] = biological target: Alpha fetoprotein (UniProt P02771); test: multiplex sandwich, S10473 capture beads; AFP 16 ng/mL, no wash
[13] = biological target: Alpha fetoprotein (UniProt P02771); test: multiplex no-wash sandwich, S10473 beads; Unknown serum, AFP computed 39.59 U/mL
[14] = biological target: Alpha fetoprotein (UniProt P02771); test: multiplex sandwich, S10473 capture beads; AFP 250 ng/mL, no wash
[15] = biological target: Neutravidin (deglycosylated avidin) (UniProt P02701); test: single-analyte, Neutravidin bead 40/40 without peptide, flow cytometry
Sequence of UniProt P02701 (P02701 25-152 limits assumed): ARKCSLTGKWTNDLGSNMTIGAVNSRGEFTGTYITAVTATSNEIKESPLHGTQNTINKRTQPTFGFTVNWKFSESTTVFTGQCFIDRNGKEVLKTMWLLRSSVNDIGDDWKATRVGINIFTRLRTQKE

[16] = biological target: Neutravidin (deglycosylated avidin) (UniProt P02701); test: single-analyte, Neutravidin bead 40/60 without peptide, flow cytometry
[17] = biological target: Neutravidin (deglycosylated avidin) (UniProt P02701); test: multiplex, Neutravidin bead 40/50 without peptide, flow cytometry
[18] = biological target: Peptide 7 …-biotin; test: multiplex peptide beads, flow cytometry; beads pre-incubated with free biotin 10 ug/mL
[19] = biological target: Peptide 4 …-biotin; test: as above
[20] = biological target: Peptide 1 …-biotin; test: as above
[21] = biological target: Peptide 6 …-biotin; test: as above
[22] = biological target: Peptide 8 …-biotin; test: as above
[23] = biological target: Peptide 5 …-biotin (human); test: as above
[24] = biological target: Peptide 2 …-biotin; test: as above
[25] = biological target: Peptide 3 …-biotin; test: as above
[26] = biological target: Peptide 9 …-biotin; test: as above
[27] = biological target: Neutravidin (deglycosylated avidin) (UniProt P02701); test: single-analyte, Neutravidin bead 40/50 without peptide, flow cytometry
[28] = biological target: Neutravidin (deglycosylated avidin) (UniProt P02701); test: multiplex, Neutravidin bead 70/70 without peptide, flow cytometry
[29] = biological target: Peptide 7 …-biotin; test: multiplex 9-peptide bead set, flow cytometry; MAB 384-Bodipy 15.5 ug/mL
[30] = biological target: Peptide 6 …-biotin; test: as above
[31] = biological target: Neutravidin (deglycosylated avidin) (UniProt P02701); test: single-analyte, Neutravidin bead 70/40 without peptide, flow cytometry
[32] = biological target: Human chorionic gonadotropin (human) (UniProt P01215); test: multiplex sandwich, MAB602 capture beads; hCG 1 ng/mL, washed
[33] = biological target: Human chorionic gonadotropin (human) (UniProt P01215); test: sandwich, MAB602 capture beads, flow cytometry; hCG 0.2 ng/mL
[34] = biological target: Human chorionic gonadotropin (human) (UniProt P01215); test: multiplex sandwich, MAB602 capture beads; hCG 31 ng/mL, washed
[35] = biological target: Human chorionic gonadotropin (human) (UniProt P01215); test: bead sandwich, flow cytometry; capture A2 (MAB 602) beads, hCG 20.0 ug/mL
[36] = biological target: Human chorionic gonadotropin (human) (UniProt P01215); test: multiplex sandwich, MAB602 capture beads; hCG 62 ng/mL, washed
[37] = biological target: Human chorionic gonadotropin (human) (UniProt P01215); test: multiplex sandwich, MAB602 capture beads; hCG 0.5 ng/mL, no wash
[38] = biological target: Human chorionic gonadotropin (human) (UniProt P01215); test: sandwich, MAB602 capture beads, flow cytometry; hCG 0.0002 ng/mL
[39] = biological target: Human chorionic gonadotropin (human) (UniProt P01215); test: multiplex sandwich, MAB602 capture beads; hCG 125 ng/mL, no wash
[40] = biological target: Alpha fetoprotein (UniProt P02771); test: anti-AFP capture beads, flow cytometry; AFP 0.1 ng/mL, anti-hCG probe
[41] = biological target: Human chorionic gonadotropin (human) (UniProt P01215); test: bead sandwich, flow cytometry; capture A1 beads, no hCG (background)
[42] = biological target: Human chorionic gonadotropin (human) (UniProt P01215); test: multiplex sandwich, MAB602 capture beads; hCG 62 ng/mL, no wash

Sequence of UniProt P02771 (P02771 19-609 limits assumed): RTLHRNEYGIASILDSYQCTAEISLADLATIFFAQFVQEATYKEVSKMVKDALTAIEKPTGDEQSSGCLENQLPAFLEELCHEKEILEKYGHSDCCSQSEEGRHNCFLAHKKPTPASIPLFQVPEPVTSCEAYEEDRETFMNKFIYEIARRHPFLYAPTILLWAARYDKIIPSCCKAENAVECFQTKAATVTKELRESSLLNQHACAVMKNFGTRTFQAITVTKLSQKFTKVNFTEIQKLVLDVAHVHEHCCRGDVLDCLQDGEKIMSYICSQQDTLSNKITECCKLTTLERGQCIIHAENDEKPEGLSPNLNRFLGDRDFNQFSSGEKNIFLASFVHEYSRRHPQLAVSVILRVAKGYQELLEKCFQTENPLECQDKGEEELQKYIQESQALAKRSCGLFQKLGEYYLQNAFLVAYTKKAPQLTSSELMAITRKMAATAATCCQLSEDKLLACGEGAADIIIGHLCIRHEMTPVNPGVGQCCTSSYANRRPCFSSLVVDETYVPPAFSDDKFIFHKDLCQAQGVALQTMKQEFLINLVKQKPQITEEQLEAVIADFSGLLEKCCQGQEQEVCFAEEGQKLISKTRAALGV

M20077 affinity purified polyclonal anti-AFP antibody, Bodipy FL-CASE labeled
MIF of Fm [1]: 35 | MIF of Fm [2]: 103 | MIF AVG [3]: 1060 | MIF of FL1 [3]: 1110 and 994 and 1080 | MIF of Fm [4]: 33 | MIF of Fm [5]: 190 | MIF of Fm [6]: 814 | MIF of Fm [7]: 612 | MIF of Fm [8]: 72 | MIF of Fm [9]: 980 | MIF AVG [10]: 363 | MIF of FL1 [10]: 351 and 365 and 372 | MIF of Fm [11]: 379 | MIF of Fm [12]: 359 | MIF AVG [13]: 276 | MIF of FL1 [13]: 268 and 274 and 286 | MIF of Fm [14]: 956

MAB 384, Bodipy FL-X labeled (antibody)
MIF of Fm [15]: 44 | MIF of Fm [16]: 54 | MIF of Fm [17]: 27 | MIF [18]: 23 | MIF [19]: 26 | MIF [20]: 17 | MIF [21]: 20 | MIF [22]: 34 | MIF [23]: 1020 | MIF [24]: 19 | MIF [25]: 22 | MIF [26]: 36 | MIF of Fm [27]: 47 | MIF of Fm [28]: 25 | MIF of Fm [29]: 35 | MIF of Fm [30]: 67 | MIF of Fm [31]: 60

AB633 affinity purified polyclonal anti-hCG antibody, Bodipy FL-CASE labeled
MIF of Fm [32]: 359 | MIF of Fm [33]: 258 and 254 | MIF of Fm [34]: 3180 | MIF of Fm [35]: 9440 | MIF of Fm [36]: 3200 | MIF of Fm [37]: 166 | MIF of Fm [38]: 122 and 149 | MIF of Fm [39]: 2070 | MIF of Fm [40]: 75 | MIF of Fm [41]: 108 | MIF of Fm [42]: 2420
